# Literature values in patent US20090318342A1, “Compounds” (IMPERIAL INNOVATIONS LIMITED, priority 2005, published 2009).
# Assays:
# [1] = target: T1, full-length collagenase 1 (MMP-1) (Homo sapiens, UniProt P03956); details: Table I; data taken from ref. 8; read-out: Ki(app) MMP-1; cited from earlier work
# T1 construct: full-length collagenase 1 (MMP-1)
# T1 sequence (P03956 100-469): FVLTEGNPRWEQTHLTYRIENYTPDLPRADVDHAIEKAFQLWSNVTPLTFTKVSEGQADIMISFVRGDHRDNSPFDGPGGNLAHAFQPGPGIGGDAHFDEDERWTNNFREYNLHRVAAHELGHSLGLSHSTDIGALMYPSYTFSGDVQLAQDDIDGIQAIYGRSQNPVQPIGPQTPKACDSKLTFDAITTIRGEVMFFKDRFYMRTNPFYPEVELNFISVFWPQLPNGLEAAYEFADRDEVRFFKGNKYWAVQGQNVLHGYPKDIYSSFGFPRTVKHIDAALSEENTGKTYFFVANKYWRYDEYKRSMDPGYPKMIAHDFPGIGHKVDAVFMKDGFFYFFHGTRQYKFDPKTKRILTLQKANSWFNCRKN
# [2] = target: T2, gelatinase A (MMP-2) (Homo sapiens, UniProt P08253); details: Table I; data taken from ref. 8; read-out: Ki(app) MMP-2; cited from earlier work
# T2 sequence (P08253 110-660): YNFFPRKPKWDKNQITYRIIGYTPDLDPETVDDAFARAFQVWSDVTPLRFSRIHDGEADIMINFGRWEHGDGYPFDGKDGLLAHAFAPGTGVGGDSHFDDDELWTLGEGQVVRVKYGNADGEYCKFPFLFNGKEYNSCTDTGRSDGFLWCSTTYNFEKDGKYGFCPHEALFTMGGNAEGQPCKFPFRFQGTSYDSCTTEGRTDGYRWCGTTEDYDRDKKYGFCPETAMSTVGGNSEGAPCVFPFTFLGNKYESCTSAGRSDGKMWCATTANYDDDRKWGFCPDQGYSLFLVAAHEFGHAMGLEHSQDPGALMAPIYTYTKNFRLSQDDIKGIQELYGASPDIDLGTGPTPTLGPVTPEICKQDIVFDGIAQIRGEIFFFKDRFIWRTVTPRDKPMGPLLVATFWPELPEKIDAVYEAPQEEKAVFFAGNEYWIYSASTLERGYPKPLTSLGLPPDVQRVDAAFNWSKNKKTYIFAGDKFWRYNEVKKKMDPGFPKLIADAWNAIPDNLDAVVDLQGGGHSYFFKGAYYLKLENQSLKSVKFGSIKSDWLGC
molecule,measurement,setting,value
"N-TIMP-3: N-terminal inhibitory domain of TIMP-3 (residues 1 to 121), C-terminally His-tagged, wild-type (protein) CTCSPSHPQDAFCNSDIVIRAKVVGKKLVKEGPFGTLVYTIKQMKMYRGFTKMPHVQYIHTEASESLCGLKLEVNKYQYLLTGRVYDGKMYTGLCNFVERWDQLTLSQRKGLNYRYHLGCN",Ki,[1],1.2 ± 0.5 nM
same,Ki,[2],4.3 ± 0.5 nM
